Data reported in patent publication US20250092426, “CAS ENDONUCLEASES AND RELATED METHODS” (Flagship Pioneering Innovations VII, LLC, published 2025).

Target: T1, CasEnd-2 (synthetic construct)
T1 chain: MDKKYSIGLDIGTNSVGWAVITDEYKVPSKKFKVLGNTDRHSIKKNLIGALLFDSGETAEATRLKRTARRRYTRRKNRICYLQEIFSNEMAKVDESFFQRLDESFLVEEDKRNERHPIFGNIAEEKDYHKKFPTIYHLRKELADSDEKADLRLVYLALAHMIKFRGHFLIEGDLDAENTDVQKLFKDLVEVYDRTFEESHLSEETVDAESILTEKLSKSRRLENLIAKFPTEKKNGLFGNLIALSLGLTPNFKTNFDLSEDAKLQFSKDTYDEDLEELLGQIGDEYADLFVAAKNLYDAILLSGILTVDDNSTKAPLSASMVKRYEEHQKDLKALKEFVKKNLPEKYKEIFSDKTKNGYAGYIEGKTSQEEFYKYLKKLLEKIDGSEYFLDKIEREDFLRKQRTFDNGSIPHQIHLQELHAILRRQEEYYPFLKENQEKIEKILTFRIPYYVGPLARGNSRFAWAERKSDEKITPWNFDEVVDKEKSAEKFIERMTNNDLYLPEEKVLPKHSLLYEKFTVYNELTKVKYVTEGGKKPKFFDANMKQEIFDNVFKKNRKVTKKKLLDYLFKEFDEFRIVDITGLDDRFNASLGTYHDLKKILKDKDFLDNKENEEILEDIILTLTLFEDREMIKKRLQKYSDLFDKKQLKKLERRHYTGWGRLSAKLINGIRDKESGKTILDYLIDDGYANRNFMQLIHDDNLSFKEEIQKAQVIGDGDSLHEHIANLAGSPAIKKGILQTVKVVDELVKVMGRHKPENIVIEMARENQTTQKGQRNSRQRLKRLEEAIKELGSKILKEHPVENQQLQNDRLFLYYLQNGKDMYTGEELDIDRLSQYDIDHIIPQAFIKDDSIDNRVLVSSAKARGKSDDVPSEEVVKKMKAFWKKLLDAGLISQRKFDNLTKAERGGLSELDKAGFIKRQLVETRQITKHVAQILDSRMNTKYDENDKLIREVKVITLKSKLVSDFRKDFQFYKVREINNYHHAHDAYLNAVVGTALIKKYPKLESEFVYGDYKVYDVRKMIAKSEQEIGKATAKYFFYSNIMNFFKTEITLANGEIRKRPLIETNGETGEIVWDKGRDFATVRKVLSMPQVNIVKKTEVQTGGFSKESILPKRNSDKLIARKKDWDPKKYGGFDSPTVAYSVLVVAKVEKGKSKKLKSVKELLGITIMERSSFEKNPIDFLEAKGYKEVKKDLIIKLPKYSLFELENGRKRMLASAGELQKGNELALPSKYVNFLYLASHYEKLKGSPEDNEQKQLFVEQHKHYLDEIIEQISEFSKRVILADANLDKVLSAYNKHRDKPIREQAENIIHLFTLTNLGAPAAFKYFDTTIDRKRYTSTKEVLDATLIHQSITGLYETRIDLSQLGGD
Assay: cell_activity; +++; HEK293T; PAM not stated
Outline: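 Editing activity was scored as the fraction of GFP+ cells on day 4 by flow cytometry. BFP-expressing HEK293T cells (250,000) received by nucleofection 200 ng plasmid for the RT-Cas fusion protein and 200 ng template RNA plasmid designed to convert BFP to GFP.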

B1: BFP-to-GFP template RNA ; BFP reporter protospacer (ssRNA ; dsDNA)
RNA: GCCGAAGCACUGCACGCCGUGUUUUAGAGCUAGAAAUAGCAAGUUAAAAUAAGGCUAGUCCGUUAUCAACUUGAAAAAGUGGCACCGAGUCGGUGCACCCUGACGUACGGCGUGCAGUGCUU
DNA 1: GCCGAAGCACTGCACGCCGT
DNA 2: ACGGCGTGCAGTGCTTCGGC
  activity: ≥ 100 % of reference
